{"source": "patent US7910550B2", "about": "“Human kunitz-type inhibitor with enhanced antifibrinolytic activity” (STC.UNM, priority 2004, dated 2011)", "key": {"[1]": {"system": "FGF-2-induced angiogenesis", "assay": "FGF-2-induced cornea pocket assay", "type": "in vivo", "settings": "preliminary studies"}, "[2]": {"system": "HT-1080 fibrosarcoma xenografts", "type": "in vivo, SCID mice", "procedure": "The relative mRNA abundance in the snap-frozen tumor xenograft samples was assessed by oligonucleotide-based microarray analysis using an Affymetrix […] Human Genome U133 set (Affymetrix, Inc., Santa Clara, Calif.). This microarray consists of two array units of over one million unique oligonucleotide features covering over 39,000 transcript variants that represent 33,000 of the best characterized human genes. Additional information regarding these chips is available on-line at the Affymetrix, Inc. website. Biotinylated cRNA probe preparation, processing, hybridization and normalization were performed as described in the Affymetrix […] Expression Analysis Manual. Florescence images were captured using a gene array scanner (Affymetrix, Inc., Santa Clara, Calif.) and expression analysis was performed using GeneSpring v5.1 software. The wild-type TFPI-2 transfected (WT) tumor ratio of medians was normalized with that obtained from mock-transfected (MT) tumors."}, "[3]": {"system": "human colorectal cancer cell line (Colo-205)", "assay": "Caspase activation in Colo-205 cells", "type": "cell-based", "settings": "48 hour exposure, 1 μM"}, "[4]": {"settings": "TFPI-2 expressing tumors over mock-transfected tumors"}, "[5]": {"settings": "human fibrosarcomas secreting wild-type human TFPI-2"}}}
{"molecule": "TFPI-2: Human tissue factor pathway inhibitor-2, 213 amino acid polypeptide with three tandem Kunitz-type domains (SEQ ID NO:1) (protein, listed as Homo sapiens) DAAQEPTGNNAEICLLPLDYGPCRALLLRYYYDRYTQSCRQFLYGGCEGNANNFYTWEACDDACWRIEKVPKVCRLQVSVDDQCEGSTEKYFFNLSSMTCEKFFSGGCHRNRIENRFPDEATCMGFCAPKKIPSFCYSPKDEGLCSANVTRYYFNPRYRTCDAFTYTGCGGNDNNFVSREDCKRACAKALKKKKKMPKLRFASRIRKIRKKQF", "values": [{"measurement": "anti-angiogenic effect", "setting": "[1]", "result": "potent and dose-dependent anti-angiogenic effect"}, {"measurement": "Fold Change mRNA: Erythropoietin-producing hepatocyte kinase, EphB6 (NM_004445)", "setting": "[2]", "result": "−2.38", "unit": "fold"}, {"measurement": "Fold Change mRNA: ADAM-TS2 (NM_021599)", "setting": "[2]; [4]", "result": "−4.62", "unit": "fold"}, {"measurement": "Fold Change mRNA: Alpha 1 chain of Type XII Collagen (AA669336)", "setting": "[2]; [4]", "result": "+7.26 fold"}, {"measurement": "Fold Change mRNA: Aquaporin 1 (NM_000385)", "setting": "[2]; [4]", "result": "+2.30 fold"}, {"measurement": "Fold Change mRNA: Biglycan (BC002416)", "setting": "[2]; [4]", "result": "−2.29", "unit": "fold"}, {"measurement": "Fold Change mRNA: Bone morphogenetic protein 4 (D30751)", "setting": "[2]; [4]", "result": "+2.79 fold"}, {"measurement": "Fold Change mRNA: COUP-transcription factor (X16155)", "setting": "[2]; [4]", "result": "−2.79", "unit": "fold"}, {"measurement": "Fold Change mRNA: CUB domain-containing protein 1 (CDCP1) (NM_022842)", "setting": "[2]; [4]", "result": "−18.70", "unit": "fold"}, {"measurement": "Fold Change mRNA: Cell death regulator Aven (NM_020371)", "setting": "[2]; [4]", "result": "−2.11", "unit": "fold"}, {"measurement": "Fold Change mRNA: Chondroitin sulfate proteoglycan 2 (versican) (D32039)", "setting": "[2]; [4]", "result": "−2.13", "unit": "fold"}, {"measurement": "Fold Change mRNA: Collagen, type 1, alpha 1 (NM_000088)", "setting": "[2]; [4]", "result": "+3.51 fold"}, {"measurement": "Fold Change mRNA: Cytidine deaminase (NM_001785)", "setting": "[2]; [4]", "result": "+35.30 fold"}, {"measurement": "Fold Change mRNA: EEF1A2, Eukaryotic translation elongation factor 1 alpha 2 (NM_001958)", "setting": "[2]; [4]", "result": "+6.85 fold"}, {"measurement": "Fold Change mRNA: EGF-TM7-latrophilin-related protein (NM_022159)", "setting": "[2]; [4]", "result": "−2.92", "unit": "fold"}, {"measurement": "Fold Change mRNA: EIF2Ak1, protein kinase, PKR (NM_002759)", "setting": "[2]; [4]", "result": "+2.51 fold"}, {"measurement": "Fold Change mRNA: Endothelin receptor type A (AU118882, NM_001957)", "setting": "[2]; [4]", "result": "−2.90", "unit": "fold"}, {"measurement": "Fold Change mRNA: FLT, VEGFR1, Fms-related tyrosine kinase receptor (NM_002019)", "setting": "[2]; [4]", "result": "−2.24", "unit": "fold"}, {"measurement": "Fold Change mRNA: Fibronectin 1 (AJ276395)", "setting": "[2]; [4]", "result": "−3.80", "unit": "fold"}, {"measurement": "Fold Change mRNA: Formin like (FRL) (NM_005892)", "setting": "[2]; [4]", "result": "−2.14", "unit": "fold"}, {"measurement": "Fold Change mRNA: Helicase, Basic leucine zipper transcription factor-1 (NM_001186)", "setting": "[2]; [4]", "result": "−2.11", "unit": "fold"}, {"measurement": "Fold Change mRNA: Hemoglobin, epsilon 1, oxygen transport (NM_005330)", "setting": "[2]; [4]", "result": "−7.63", "unit": "fold"}, {"measurement": "Fold Change mRNA: Interleukin-8 (IL-8, C—X—CL8) (NM_000584)", "setting": "[2]; [4]", "result": "−6.99", "unit": "fold"}, {"measurement": "Fold Change mRNA: Junction plakoglobin (NM_021991)", "setting": "[2]; [4]", "result": "−2.21", "unit": "fold"}, {"measurement": "Fold Change mRNA: LIM domain binding 2 (NM_001290)", "setting": "[2]; [4]", "result": "−5.20", "unit": "fold"}, {"measurement": "Fold Change mRNA: LIM homeobox protein 6 (NM_014368)", "setting": "[2]; [4]", "result": "+2.91 fold"}, {"measurement": "Fold Change mRNA: Ligase III, DNA (NM_013975)", "setting": "[2]; [4]", "result": "+2.04 fold"}, {"measurement": "Fold Change mRNA: Lymphocyte antigen 75, gp200-MR6 (NM_002349)", "setting": "[2]; [4]", "result": "+14.32 fold"}, {"measurement": "Fold Change mRNA: MAGE-A1, Melanoma antigen family A1 (NM_004988)", "setting": "[2]; [4]", "result": "−2.95", "unit": "fold"}, {"measurement": "Fold Change mRNA: Metastasis suppressor gene (NM_014751)", "setting": "[2]; [4]", "result": "+2.06 fold"}, {"measurement": "Fold Change mRNA: N-Cadherin (M34064)", "setting": "[2]; [4]", "result": "−2.13", "unit": "fold"}, {"measurement": "Fold Change mRNA: Neuropeptide Y receptor (L01639)", "setting": "[2]; [4]", "result": "−8.03", "unit": "fold"}, {"measurement": "Fold Change mRNA: Nox 4, NADPH oxidase 4 (NM_016931)", "setting": "[2]; [4]", "result": "−2.46", "unit": "fold"}, {"measurement": "Fold Change mRNA: Oligophrenin 1 (NM_002547)", "setting": "[2]; [4]", "result": "+2.95 fold"}, {"measurement": "Fold Change mRNA: PBX-2, Pre-B cell leukemia transcription factor-2 (NM_002586)", "setting": "[2]; [4]", "result": "−2.75", "unit": "fold"}, {"measurement": "Fold Change mRNA: Phenylalanine-tRNA synthetase (NM_006567)", "setting": "[2]; [4]", "result": "+2.11 fold"}, {"measurement": "Fold Change mRNA: Phorbolin-like protein MDS019 (NM_021822)", "setting": "[2]; [4]", "result": "+2.80 fold"}, {"measurement": "Fold Change mRNA: Protein tyrosine phosphatase, receptor type, U (U71075)", "setting": "[2]; [4]", "result": "−2.48", "unit": "fold"}, {"measurement": "Fold Change mRNA: Reversion-inducing-cysteine-rich protein with kazal motif (RECK) (NM_021111)", "setting": "[2]; [4]", "result": "+2.64 fold"}, {"measurement": "Fold Change mRNA: S100 calcium-binding protein A4 (NM_002961)", "setting": "[2]; [4]", "result": "+2.79 fold"}, {"measurement": "Fold Change mRNA: Tumor necrosis factor, alpha-induced protein 2 (NM_006291)", "setting": "[2]; [4]", "result": "+2.98 fold"}, {"measurement": "Fold Change mRNA: Tumor protein D52-like 1 (NM_003287)", "setting": "[2]; [4]", "result": "+2.10 fold"}, {"measurement": "Fold Change mRNA: Vascular endothelial growth factor C (U58111)", "setting": "[2]; [4]", "result": "−2.41", "unit": "fold"}, {"measurement": "Fold Change mRNA: Zinc finger protein 22 (KOX 15) (NM_006963, AA744771)", "setting": "[2]; [4]", "result": "+29.27 fold"}, {"measurement": "Fold Change mRNA: Zinc finger protein 185 (LIM domain) (NM_006291)", "setting": "[2]; [4]", "result": "+5.05 fold"}, {"measurement": "Fold Change mRNA: dermatopontin precursor (AI146848)", "setting": "[2]; [4]", "result": "+2.87 fold"}, {"measurement": "Fold Change mRNA: enigma (LIM domain protein) (AW206786)", "setting": "[2]; [4]", "result": "−2.32", "unit": "fold"}, {"measurement": "Fold Change mRNA: fibrillin 1 precursor (AI264196)", "setting": "[2]; [4]", "result": "−2.48", "unit": "fold"}, {"measurement": "Fold Change mRNA: platelet derived growth factor alpha polypeptide (NM_002607)", "setting": "[2]; [4]", "result": "+2.53 fold"}, {"measurement": "Fold Change mRNA: protein tyrosine kinase 7 (NM_002821)", "setting": "[2]; [4]", "result": "+2.33 fold"}, {"measurement": "Fold Change mRNA: sortilin 1 (SORTI) (BE742268)", "setting": "[2]; [4]", "result": "−4.21", "unit": "fold"}, {"measurement": "Fold Change mRNA: thrombospondin 1 precursor (AI812030)", "setting": "[2]; [4]", "result": "−3.39", "unit": "fold"}, {"measurement": "Fold Change mRNA: voltage-gated potassium channel activity (AF052169)", "setting": "[2]; [4]", "result": "+2.48 fold"}, {"measurement": "Fold Change mRNA: Chemokine (C—X—C motif), receptor 4 (fusin) (AF348491)", "setting": "[2]; TFPI-2 expressing tumors over mock-transfected tumors, first of two values", "result": "−4.21", "unit": "fold"}, {"measurement": "Fold Change mRNA: Chemokine (C—X—C motif), receptor 4 (fusin) (AJ224869)", "setting": "[2]; TFPI-2 expressing tumors over mock-transfected tumors, second of two values", "result": "−27.40", "unit": "fold"}, {"measurement": "IL-8 down regulated", "setting": "[2]; [5]", "result": 6.99, "unit": "fold"}, {"measurement": "VEGF-C down regulated", "setting": "[2]; [5]", "result": 2.41, "unit": "fold"}, {"measurement": "VEGF-R1 (FLT1) down regulated", "setting": "[2]; [5]", "result": 2.24, "unit": "fold"}]}
{"molecule": "R24K KD1: KD1 with lysine in place of arginine at position 24 (SEQ ID NO:3) (protein, mutated active domain) DAAQEPTGNNAEICLLPLDYGPCKALLLRYYYDRYTQSCRQFLYGGCEGNANNFYTWEACDDACWRIEKVPKV", "values": [{"measurement": "caspase activation", "setting": "[3]", "result": "caspase activation"}]}
